The source of these data is IntAct's records for PubMed 19509288.

The labels stand for the following.
B1: ATP-dependent RNA helicase SUPV3L1, mitochondrial (Homo sapiens), Q8IYB8 (parent)
chain: MSFSRALLWARLPAGRQAGHRAAICSALRPHFGPFPGVLGQVSVLATASSSASGGSKIPNTSLFVPLTVKPQGPSADGDVGAELTRPLDKNEVKKVLDKFYKRKEIQKLGADYGLDARLFHQAFISFRNYIMQSHSLDVDIHIVLNDICFGAAHADDLFPFFLRHAKQIFPVLDCKDDLRKISDLRIPPNWYPDARAMQRKIIFHSGPTNSGKTYHAIQKYFSAKSGVYCGPLKLLAHEIFEKSNAAGVPCDLVTGEERVTVQPNGKQASHVSCTVEMCSVTTPYEVAVIDEIQMIRDPARGWAWTRALLGLCAEEVHLCGEPAAIDLVMELMYTTGEEVEVRDYKRLTPISVLDHALESLDNLRPGDCIVCFSKNDIYSVSRQIEIRGLESAVIYGSLPPGTKLAQAKKFNDPNDPCKILVATDAIGMGLNLSIRRIIFYSLIKPSINEKGERELEPITTSQALQIAGRAGRFSSRFKEGEVTTMNHEDLSLLKEILKRPVDPIRAAGLHPTAEQIEMFAYHLPDATLSNLIDIFVDFSQVDGQYFVCNMDDFKFSAELIQHIPLSLRVRYVFCTAPINKKQPFVCSSLLQFARQYSRNEPLTFAWLRRYIKWPLLPPKNIKDLMDLEAVHDVLDLYLWLSYRFMDMFPDASLIRDLQKELDGIIQDGVHNITKLIKMSETHKLLNLEGFPSGSQSRLSGTLKSQARRTRGTKALGSKATEPPSPDAGELSLASRLVQQGLLTPDMLKQLEKEWMTQQTEHNKEKTESGTHPKGTRRKKKEPDSD
partner: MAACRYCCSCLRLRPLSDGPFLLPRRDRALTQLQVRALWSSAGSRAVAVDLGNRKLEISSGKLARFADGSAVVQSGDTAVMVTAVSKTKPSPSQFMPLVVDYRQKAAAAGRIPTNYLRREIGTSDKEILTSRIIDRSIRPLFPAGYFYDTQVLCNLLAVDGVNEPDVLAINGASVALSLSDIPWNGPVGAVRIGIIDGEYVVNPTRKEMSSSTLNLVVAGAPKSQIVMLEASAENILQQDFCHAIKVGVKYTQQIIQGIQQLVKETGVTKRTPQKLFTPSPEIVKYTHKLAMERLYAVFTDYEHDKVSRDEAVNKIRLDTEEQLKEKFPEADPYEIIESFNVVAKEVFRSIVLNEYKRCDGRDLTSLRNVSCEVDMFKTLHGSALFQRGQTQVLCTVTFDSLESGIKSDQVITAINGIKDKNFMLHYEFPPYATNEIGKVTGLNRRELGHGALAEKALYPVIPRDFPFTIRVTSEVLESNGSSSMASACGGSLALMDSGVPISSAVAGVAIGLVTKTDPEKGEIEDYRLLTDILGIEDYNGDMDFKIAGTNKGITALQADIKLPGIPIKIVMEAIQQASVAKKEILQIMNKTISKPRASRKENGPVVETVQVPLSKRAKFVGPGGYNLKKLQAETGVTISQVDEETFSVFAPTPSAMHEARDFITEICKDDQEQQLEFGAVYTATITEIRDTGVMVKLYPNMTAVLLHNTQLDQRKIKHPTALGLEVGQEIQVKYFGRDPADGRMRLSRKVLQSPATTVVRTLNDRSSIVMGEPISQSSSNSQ

The variants in the experiment derive from B1. Conditions: with pnpt1_human PNPT1, Q8TCS8.
On to K213A, for which the “effect of a mutation on the interaction” value is “with no effect”.
